Values quoted from earlier work as cited in patent US9307769B2, “Method for increasing plant yield, and yield improving compositions” (Plant Health Care, Inc., priority 2011, dated 2016).
Like-named read-outs stand apart in the source and are kept apart here.

[1] = building block domains for fusion proteins, Table 2
[2] = HR-eliciting fragments, Table 1

Substance	pI [1]	pI [2]
(NC): building block domain, source HrpNEa140-180 (QNDDSTSGTDSTSDSSDPMQQLLKMFSEIMQSLFGDGQDGT; UniProt Q01099 140-180, looked up, fragment)	5.01	
(NN): building block domain, source HrpNEa40-80 (SALGLGGGNQNDTVNQLAGLLTGMMMMMSMMGGGGLMGGGL; UniProt Q01099 40-80, looked up, fragment)	6.78	
HrpNEa-1: HR-eliciting fragment, E. amylovora, amino acid residues 43-70 (GLGGGNQNDTVNQLAGLLTGMMMMMSMM; UniProt Q01099 43-70, looked up, fragment)		3.09
HrpNEa-2: HR-eliciting fragment, E. amylovora, amino acid residues 140-176 (QNDDSTSGTDSTSDSSDPMQQLLKMFSEIMQSLFGDG; UniProt Q01099 140-176, looked up, fragment)		3.17
HrpNEch-1: HR-eliciting fragment, E. chrysanthemi, amino acid residues 78-118 (QLGQSFGNGAQGASNLLSVPKSGGDALSKMFDKALDDLLGH; UniProt Q47278 78-118, looked up, fragment)		5.25
HrpNEch-2: HR-eliciting fragment, E. chrysanthemi, amino acid residues 256-295 (DGWSSPKTDDKSWAKALSKPDDDGMTGASMDKFRQAMGMI; UniProt Q47278 256-295, looked up, fragment)		4.62
HrpWPss-1: HR-eliciting fragment, P. syringae, amino acid residues 52-96 (LAATMFVMAPVAHDIQQRVHEHPLELSNADKLQSSLKVVIEPLQR; UniProt Q60236 52-96, looked up, fragment)		4.32
